Source: article PMC4237735, “Codon optimization and factorial screening for enhanced soluble expression of human ciliary neurotrophic factor in Escherichia coli” (BMC Biotechnology, 2014)

Target: T1, human ciliary neurotrophic factor receptor alpha (hCNTFRα) (human, UniProt P26992 23-342)
T1 construct: human ciliary neurotrophic factor receptor alpha (hCNTFRα), bought protein; also called hCNTF receptor; source: bought: Sino Biologicals Inc
T1 sequence (looked up): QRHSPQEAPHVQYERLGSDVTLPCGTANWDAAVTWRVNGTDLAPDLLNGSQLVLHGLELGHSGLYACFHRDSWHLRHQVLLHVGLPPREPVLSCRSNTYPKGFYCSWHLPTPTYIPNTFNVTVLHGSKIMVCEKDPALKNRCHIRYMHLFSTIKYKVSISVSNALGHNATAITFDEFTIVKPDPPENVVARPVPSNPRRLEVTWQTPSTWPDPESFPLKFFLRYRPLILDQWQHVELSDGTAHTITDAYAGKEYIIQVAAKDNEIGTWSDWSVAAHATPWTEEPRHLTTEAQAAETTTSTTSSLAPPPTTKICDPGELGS
Assay: ELISA; 1 μg hCNTFRα in PBS immobilised on Nunc MaxiSorp 96-well plate; blocked with 2% BSA in TBS-T; biotinylated CNTF 0.2 – 3.0 μg added, room temperature 2 h; detected with HRP-conjugated streptavidin and TMB, OD 450 nm
Conditions: both partners purified

B1: recombinant 6-His-hCNTF (human ciliary neurotrophic factor), biotinylated (ligand, UniProt P26441 1-200, looked up)
chain: MAFTEHSPLTPHRRDLCSRSIWLARKIRSDLTALTESYVKHQGLNKNINLDSADGMPVASTDQWSELTEAERLQENLQAYRTFHVLLARLLEDQQVHFTPTEGDFHQAIHTLLLQVAAFAYQIEELMILLEYKIPRNEADGMPINVGDGGLFEKKLWGLKVLQELSQWTVRSIHDLRFISSHQTGIPARGSHYIANNKKM
modifications: biotin (reacted with a 20-fold molar excess of NHS-PEG4-biotin; sites not stated)
notes: Rhinovirus 3C protease cleavage site between the tag and the insert; No cleavage of the 6-His tag is described; also called biotinylated hCNTF; biotinylated CNTF; source: E. coli Rosetta 2(DE3)pLysS, TBONEX 25°C, purified (Ni-IDA, SEC)
B1 showed an EC50 of 36 nM.
